We go through 2 molecules from patent publication US11066655B2, “RNA polymerase, methods of purification and methods of use” (President and Fellows of Harvard College, priority 2013, dated 2021).

Where a chain is given by its changes, count along the chain named. Names and notes keep the numbering of the source. “Also recorded” adds a separate entry of the source.

The nature of data set [1]: Activity of Syn5 RNAP-NP (gel). The format is biochemical. The text has this: FIG. 18 depicts gels showing expression and activity of Syn5 RNAP-NP.
(§1) The wild-type Syn5 RNA polymerase gene was modified as follows to improve expression in E. coli cells. Nucleotides in Syn5 RNA polymerase gene (No. 808-825) CCA TTG GGC ACC CGT AAG (SEQ ID NO:78) encoding Pro Leu Gly Thr Arg Lys (SEQ ID NO:79) were mutated to CCT CTT GGT ACG CGC AAG (SEQ ID NO:80) without changing the amino acids encoded, and the Syn5 promoter A TTG GGC ACC CGT AA (SEQ ID NO:81) within this region was removed (FIG. 16). Thus, when expressed in E. coli, the enzyme produced by the modified gene would not start transcription from its own gene, enabling the cells to grow much faster (FIG. 17) and yield at least 5 times more enzyme than cells expressing wild-type Syn5 RNAP.

A further data set concerns E. coli BL21 (DE3). As to the kind of experiment: Growth curve of E. coli expressing Syn5 RNA polymerase from wild-type or modified vector. The format is cell-based. As to conditions: versus vector expressing wild-type Syn5 RNAP.
Excerpt: FIG. 17 graphically depicts a growth curve of E. coli BL21 (DE3) expressing Syn5 RNA polymerase from wild-type (WT, Syn5 RNAP-pET24a) or modified (Syn5 RNAP-NP-pET24a) vector.
as §1
E. coli BL21(DE3) was transformed with plasmid Syn5 RNAP-NP-pET24 encoding an N-terminal His-tagged Syn5 RNA polymerase. Cells were grown at 37° C. until they reached an OD of 1.2, at which point the temperature was reduced to 25° C. and IPTG was added at final concentration of 0.5 mM. Cells were grown an additional 4 hours before collection. The purification procedure used is described in “Zhu B, Tabor S, Richardson CC. (2014) Syn5 RNA polymerase synthesizes precise run-off RNA products. […]

Data set [2] deals with template for a 2.7 knt RNA or human mitochondrial tRNA^ProUGG. As to the kind of experiment: 2′-F-dNTP incorporation by Syn5 RNA polymerase Y564F. It is filed as biochemical. The text has this:
FIGS. 28A, 28B, 28C and 28D depict gels showing a preference for 2′-F-dC/UTP over rC/UTP by Syn5 RNAP-Y564F.
Syn5 RNA polymerases containing Y564F and/or Y574F mutation were constructed using a known PCR mutagenesis method (see Higuchi et al., Nucleic Acids Res. 16:7351-7367 (1988) hereby incorporated by reference in its entirety), expressed and purified using known methods. The wild type gene background for the mutants was also modified, with the internal Syn5 promoter removed to reduce toxicity and increase the yield of the protein when expressed in E. coli. Purified proteins were analyzed by SDS-PAGE. The mutants were used to incorporate 2′-F-dNTPs as described below.
The reaction components were incubated at 37° C. for 4 hrs. 0.4 µl of the reaction mixture was loaded onto 2% agarose gel or 10% TBE gel and stained with ethidium bromide. Results are shown in FIG. 28A, FIG. 28B, FIG. 28C and FIG. 28D. The Y564F mutation does change the recognition of the 2′-group in the nucleotide substrates by Syn5 RNA polymerase. […] See FIG. 28A lane 4 vs 3; FIG. 28B lane 9-11 vs 6; FIG. 28C lane 11-13 vs 8).

B1: Syn5 RNAP-NP: Syn5 RNAP from modified gene (SEQ ID NO:83) with internal Syn5 promoter removed by silent mutations; same amino acids as wild-type (protein)
chain: MSFDLIARQLQRETEAAELARKRLQDARREANERSYASSNIESRKAIATFLDPIAQRIGERLFTLRRGTGAVDAAEVYKHLKNADHHHLALITMKTALDVLGKDPEPQIQQLTTAIGRNIQLELRLTYYAEENPELYKQASRFFHAGTGTRQKATVIKLKFNREGIEWDQWSRVTCHKVGQWLMLAMADVTGWIERATDRTSGGRKTKTRICYSREFLQHRDTILAAAEQLAFCQWPMLCPPIEWSNDHNGGYLSEQIRRVNPLIRKTGPLGTRKQGDIPLAMLNNLQGQAYKVNPEVLDIANHCYESNVTVGKFIRHAPLPVPPSPGEDCTEDQLTAYKRARREAEDFNAQISQKNWRTTEVMYVARKYADEASFWMPASFDYRGRVYFLNTALNPQGTDFDKALLYFAEEGPVNEWWLSFHVATTYGLDKETMVNRVQWARDNHELIDRIASDPVRHTEWHDADEPWCFLAACLEYKACVIDGTKQTSGLPIGIDATCSGLQHLAAMTRCGRTAALVNVTPTDKPADAYKTVAQASLKHLPKEQHEWITRKVTKRPVMCTPYGVTMSSARGYIRDQLVKDGHKEDLRSPGVLNGIVKAIFNEAIPEVIPGPVQVMAWLKRSAGQIIDRGDSTITWTTPSGFEVVQDLKKSKTYEVKTRIMGGARIKLQVGDGFTDEPDRDHHKSALAPNVVHSNDASLLHLTFAFWDKPFTVIHDCVLGRSCDMDQMGSDIRLHFAEMYKADVMQDWADQVGVELPVDLIKNTLDIDSVNQSLYFFS
modifications: Syn5 RNAP-NP
notes: same amino acids as wild-type
For the molecule B1, in data set [1], the “enzymatic activity versus wild-type” value was “same enzymatic activity as the wild-type Syn5 RNAP; also recorded: comparable enzymatic activity”. In the data set with E. coli BL21 (DE3), the “toxicity to host cells” value is given as “less toxic to host cells”.

B2: Syn5 RNA polymerase Y564F: Syn5 RNA polymerase Y564F mutant for the incorporation of 2′-F-dNTPs (protein)
chain: B1 chain with Y564F
modifications: Amino acid sequence of a cyanophage Syn5 RNAP
notes: Syn5 RNA polymerase Y564F mutant for the incorporation of 2′-F-dNTPs
With B2, the “substrate preference 2′-F-dC/UTP versus rC/UTP” value in data set [2] (Mg buffer, 37° C.) was “prefers 2′-F-dCTP and 2′-F-dUTP to canonical rCTP and rUTP”. Besides, the “synthesis of long 2′-F RNA” value in data set [2] (low enzyme concentration) was “stably synthesizes long RNA containing 2′-F-dCMP and 2′-F-dUMP”. Moreover, the “transcript with all four 2′-F-dNMPs” value in data set [2] (template starting with C) is listed as “Full-length transcript including all four 2′-F-dNMPs was synthesized”. Also, the “discrimination to 2′-F-dATP and 2′-F-dGTP” value in data set [2] (versus wild type) was “reduced”.
